# Test results: paper PMC4022651, “Substitutional Analysis of the C-Terminal Domain of AbrB Revealed Its Essential Role in DNA-Binding Activity”
# Key:
# [1] = molecular target: AbrBQ81K, identical with the AbrB of B. amyloliquefaciens FZB45 (B. subtilis (with Q81K: B. amyloliquefaciens FZB45)); assay: SEC; analytical gel filtration (FPLC) on Superdex 75 5/150 GL; running buffer condition I: 50 mM HEPES pH 7.5, 300 mM NaCl, 2 mM β-mercaptoethanol, no glycerol; 100 µl protein applied; 0.2 ml/min; polymeric forms as % of the areas under the curve of all protein peaks
# AbrB K71A (B. subtilis) [2] = assay: SEC; analytical gel filtration (FPLC) on Superdex 75 5/150 GL; running buffer condition II: 50 mM HEPES pH 7.5, 300 mM NaCl, 2 mM β-mercaptoethanol with 10% glycerol; 60 µl (100 µg) protein applied; 0.2 ml/min; polymeric forms as % of the areas under the curve of all protein peaks
# AbrB K71A (B. subtilis) [3] = assay: SEC; analytical gel filtration (FPLC) on Superdex 75 5/150 GL; running buffer condition I: 50 mM HEPES pH 7.5, 300 mM NaCl, 2 mM β-mercaptoethanol, no glycerol; 100 µl protein applied; 0.2 ml/min; polymeric forms as % of the areas under the curve of all protein peaks
# AbrB Q55A (B. subtilis) = assay: as above
# AbrB Q89A (B. subtilis) = assay: as above
# [4] = molecular target: wild-type AbrB of B. subtilis 168 (His6-AbrB) (B. subtilis); assay: SEC; analytical gel filtration (FPLC) on Superdex 75 5/150 GL; running buffer condition II: 50 mM HEPES pH 7.5, 300 mM NaCl, 2 mM β-mercaptoethanol with 10% glycerol; 60 µl (100 µg) protein applied; 0.2 ml/min; polymeric forms as % of the areas under the curve of all protein peaks
# [5] = molecular target: wild-type AbrB of B. subtilis 168 (His6-AbrB) (B. subtilis); assay: SEC; analytical gel filtration (FPLC) on Superdex 75 5/150 GL; running buffer condition I: 50 mM HEPES pH 7.5, 300 mM NaCl, 2 mM β-mercaptoethanol, no glycerol; 100 µl protein applied; 0.2 ml/min; polymeric forms as % of the areas under the curve of all protein peaks
# AbrB Q87A (B. subtilis) = assay: as above
# AbrB E80A (B. subtilis) [6] = assay: SEC; analytical gel filtration (FPLC) on Superdex 75 5/150 GL; running buffer condition II: 50 mM HEPES pH 7.5, 300 mM NaCl, 2 mM β-mercaptoethanol with 10% glycerol; 60 µl (100 µg) protein applied; 0.2 ml/min; polymeric forms as % of the areas under the curve of all protein peaks
# AbrB E80A (B. subtilis) [7] = assay: SEC; analytical gel filtration (FPLC) on Superdex 75 5/150 GL; running buffer condition I: 50 mM HEPES pH 7.5, 300 mM NaCl, 2 mM β-mercaptoethanol, no glycerol; 100 µl protein applied; 0.2 ml/min; polymeric forms as % of the areas under the curve of all protein peaks
# AbrBR15A (B. subtilis) [8] = assay: SEC; analytical gel filtration (FPLC) on Superdex 75 5/150 GL; running buffer condition II: 50 mM HEPES pH 7.5, 300 mM NaCl, 2 mM β-mercaptoethanol with 10% glycerol; 60 µl (100 µg) protein applied; 0.2 ml/min; polymeric forms as % of the areas under the curve of all protein peaks
# AbrBR15A (B. subtilis) [9] = assay: SEC; analytical gel filtration (FPLC) on Superdex 75 5/150 GL; running buffer condition I: 50 mM HEPES pH 7.5, 300 mM NaCl, 2 mM β-mercaptoethanol, no glycerol; 100 µl protein applied; 0.2 ml/min; polymeric forms as % of the areas under the curve of all protein peaks
# AbrB K76A (B. subtilis) = assay: as above
# AbrB D62A (B. subtilis) = assay: as above
# AbrB N88D (B. subtilis) = assay: as above
# AbrB E77A (B. subtilis) [10] = assay: SEC; analytical gel filtration (FPLC) on Superdex 75 5/150 GL; running buffer condition II: 50 mM HEPES pH 7.5, 300 mM NaCl, 2 mM β-mercaptoethanol with 10% glycerol; 60 µl (100 µg) protein applied; 0.2 ml/min; polymeric forms as % of the areas under the curve of all protein peaks
# AbrB E77A (B. subtilis) [11] = assay: SEC; analytical gel filtration (FPLC) on Superdex 75 5/150 GL; running buffer condition I: 50 mM HEPES pH 7.5, 300 mM NaCl, 2 mM β-mercaptoethanol, no glycerol; 100 µl protein applied; 0.2 ml/min; polymeric forms as % of the areas under the curve of all protein peaks
# AbrB Q55E (B. subtilis) [12] = assay: SEC; analytical gel filtration (FPLC) on Superdex 75 5/150 GL; running buffer condition II: 50 mM HEPES pH 7.5, 300 mM NaCl, 2 mM β-mercaptoethanol with 10% glycerol; 60 µl (100 µg) protein applied; 0.2 ml/min; polymeric forms as % of the areas under the curve of all protein peaks
# AbrB Q55E (B. subtilis) [13] = assay: SEC; analytical gel filtration (FPLC) on Superdex 75 5/150 GL; running buffer condition I: 50 mM HEPES pH 7.5, 300 mM NaCl, 2 mM β-mercaptoethanol, no glycerol; 100 µl protein applied; 0.2 ml/min; polymeric forms as % of the areas under the curve of all protein peaks
# AbrB K94I (B. subtilis) [14] = assay: SEC; analytical gel filtration (FPLC) on Superdex 75 5/150 GL; running buffer condition II: 50 mM HEPES pH 7.5, 300 mM NaCl, 2 mM β-mercaptoethanol with 10% glycerol; 60 µl (100 µg) protein applied; 0.2 ml/min; polymeric forms as % of the areas under the curve of all protein peaks
# AbrB K94I (B. subtilis) [15] = assay: SEC; analytical gel filtration (FPLC) on Superdex 75 5/150 GL; running buffer condition I: 50 mM HEPES pH 7.5, 300 mM NaCl, 2 mM β-mercaptoethanol, no glycerol; 100 µl protein applied; 0.2 ml/min; polymeric forms as % of the areas under the curve of all protein peaks
# AbrB K94A (B. subtilis) = assay: as above
# AbrB Q81A (B. subtilis) = assay: as above
# AbrBQ81E (B. subtilis) [16] = assay: SEC; analytical gel filtration (FPLC) on Superdex 75 5/150 GL; running buffer condition II: 50 mM HEPES pH 7.5, 300 mM NaCl, 2 mM β-mercaptoethanol with 10% glycerol; 60 µl (100 µg) protein applied; 0.2 ml/min; polymeric forms as % of the areas under the curve of all protein peaks
# AbrBQ81E (B. subtilis) [17] = assay: SEC; analytical gel filtration (FPLC) on Superdex 75 5/150 GL; running buffer condition I: 50 mM HEPES pH 7.5, 300 mM NaCl, 2 mM β-mercaptoethanol, no glycerol; 100 µl protein applied; 0.2 ml/min; polymeric forms as % of the areas under the curve of all protein peaks
# AbrB E85A (B. subtilis) = assay: as above
# AbrB N88A (B. subtilis) = assay: as above
substance,measurement,setting,value
"AbrBQ81K, identical with the AbrB of B. amyloliquefaciens FZB45 (natural protein)",% of the protein (AUC) in the form with n 4.0,[1],> 95%
same,stoichiometry N,[1],4
AbrB K71A (natural protein),% of the protein (AUC) in the form with n 3.9,AbrB K71A (B. subtilis) [2],> 95%
same,stoichiometry N,AbrB K71A (B. subtilis) [2],3.9
same,% of the protein (AUC) in the form with n 4.3,AbrB K71A (B. subtilis) [3],86%
same,% of the protein (AUC) in the form with n 8.5,AbrB K71A (B. subtilis) [3],14%
AbrB Q55A (natural protein),% of the protein (AUC) in the form with n 3.9,AbrB Q55A (B. subtilis),92%
same,% of the protein (AUC) in the form with n 8.1,AbrB Q55A (B. subtilis),8%
AbrB Q89A (natural protein),% of the protein (AUC) in the form with n 4.8,AbrB Q89A (B. subtilis),93%
same,% of the protein (AUC) in the form with n 8.1,AbrB Q89A (B. subtilis),7%
wild-type AbrB of B. subtilis 168 (His6-AbrB) (natural protein),% of the protein (AUC) in the form with n 4.8,[4],> 95%
same,stoichiometry N,[4],4.8
same,% of the protein (AUC) in the form with n 4.1,[5],87%
same,% of the protein (AUC) in the form with n 8.2,[5],13%
AbrB Q87A (natural protein),% of the protein (AUC) in the form with n 4.5,AbrB Q87A (B. subtilis),93%
same,% of the protein (AUC) in the form with n 8.1,AbrB Q87A (B. subtilis),7%
AbrB E80A (natural protein),% of the protein (AUC) in the form with n 4.5,AbrB E80A (B. subtilis) [6],90%
same,% of the protein (AUC) in the form with n 56.3,AbrB E80A (B. subtilis) [6],10%
same,% of the protein (AUC) in the form with n 3.9,AbrB E80A (B. subtilis) [7],78%
same,% of the protein (AUC) in the form with n 8.2,AbrB E80A (B. subtilis) [7],22%
AbrBR15A (natural protein),% of the protein (AUC) in the form with n 40.4,AbrBR15A (B. subtilis) [8],10%
same,% of the protein (AUC) in the forms with 12< n >1,AbrBR15A (B. subtilis) [8],90%
same,% of the protein (AUC) in the form with n 4.1,AbrBR15A (B. subtilis) [9],57.5%
same,% of the protein (AUC) in the form with n 8.0,AbrBR15A (B. subtilis) [9],42.5%
AbrB K76A (natural protein),% of the protein (AUC) in the form with n 4.0,AbrB K76A (B. subtilis),> 95%
same,stoichiometry N,AbrB K76A (B. subtilis),4
AbrB D62A (natural protein),% of the protein (AUC) in the form with n 4.1,AbrB D62A (B. subtilis),94%
same,% of the protein (AUC) in the form with n 8.2,AbrB D62A (B. subtilis),6%
AbrB N88D (natural protein),% of the protein (AUC) in the form with n 4.1,AbrB N88D (B. subtilis),93%
same,% of the protein (AUC) in the form with n 8.3,AbrB N88D (B. subtilis),8%
AbrB E77A (natural protein),% of the protein (AUC) in the form with n 4.7,AbrB E77A (B. subtilis) [10],94%
same,% of the protein (AUC) in the form with n 55.5,AbrB E77A (B. subtilis) [10],6%
same,% of the protein (AUC) in the form with n 4.1,AbrB E77A (B. subtilis) [11],83%
same,% of the protein (AUC) in the form with n 8.2,AbrB E77A (B. subtilis) [11],17%
AbrB Q55E (natural protein),% of the protein (AUC) in the form with n 3.8,AbrB Q55E (B. subtilis) [12],> 95%
same,stoichiometry N,AbrB Q55E (B. subtilis) [12],3.8
same,% of the protein (AUC) in the form with n 4.3,AbrB Q55E (B. subtilis) [13],49%
same,% of the protein (AUC) in the form with n 12.3,AbrB Q55E (B. subtilis) [13],51%
AbrB K94I (natural protein),% of the protein (AUC) in the form with n 4.1,AbrB K94I (B. subtilis) [14],> 95%
same,stoichiometry N,AbrB K94I (B. subtilis) [14],4.1
same,% of the protein (AUC) in the form with n 4.7,AbrB K94I (B. subtilis) [15],65.6%
same,% of the protein (AUC) in the form with n 13.6,AbrB K94I (B. subtilis) [15],34.4%
same,% of the protein in larger polymeric forms,AbrB K94I (B. subtilis) [15],< 30%
AbrB K94A (natural protein),% of the protein (AUC) in the form with n 4.1,AbrB K94A (B. subtilis),93%
same,% of the protein (AUC) in the form with n 8.2,AbrB K94A (B. subtilis),7%
AbrB Q81A (natural protein),% of the protein (AUC) in the form with n 4.4,AbrB Q81A (B. subtilis),94%
same,% of the protein (AUC) in the form with n 8.5,AbrB Q81A (B. subtilis),6%
AbrBQ81E (natural protein),% of the protein (AUC) in the form with n 4.1,AbrBQ81E (B. subtilis) [16],> 95%
same,stoichiometry N,AbrBQ81E (B. subtilis) [16],4.1
same,% of the protein (AUC) in the form with n 3.9,AbrBQ81E (B. subtilis) [17],78%
same,% of the protein (AUC) in the form with n 8.1,AbrBQ81E (B. subtilis) [17],22%
AbrB E85A (natural protein),% of the protein (AUC) in the form with n 4.0,AbrB E85A (B. subtilis),98%
same,% of the protein (AUC) in the form with n 8.2,AbrB E85A (B. subtilis),2%
AbrB N88A (natural protein),% of the protein (AUC) in the form with n 4.5,AbrB N88A (B. subtilis),91%
same,% of the protein (AUC) in the form with n 8.1,AbrB N88A (B. subtilis),9%
